Source: patent US20180296707A1, “PHARMACEUTICAL FORMULATION AND METHOD OF PREPARING THE SAME” (SeeCure Taiwan Co., Ltd., priority 2017, published 2018)

Legend:
SSTR2 = SSTR2 (Homo sapiens, UniProt P30874); conditions: background statement; cited from earlier work
SSTR3 = SSTR3 (Homo sapiens, UniProt P32745); conditions: background statement; cited from earlier work
human pancreatic tumor = assay: PET/CT imaging, tumor/muscle count density in pancreatic tumor models; conditions: human pancreatic-tumor bearing mouse, FIG. 12
Procedure: (§1) Briefly, athymic nude mice (15±2 g) bearing human tumors (at hind legs) derived from the colorectal and pancreatic cell line were used for imaging studies. Studies were performed 21 to 28 days after inoculation when tumors were approximately 0.5 cm in diameter. Scintigraphic images were obtained either from a micro-PET (Inveon) embedded in the gantries coordinate PET/CT data acquisition. […] The static images were obtained at 0.5, 1 and 2 hrs.

[1] = PET/CT imaging, tumor/muscle count density in colorectal tumor models; assay type: in vivo, athymic nude mice; conditions: athymic nude, tumor/muscle, 500 uCi/mouse, total radioactivity, 500 μCi/mouse iv;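 note: human colorectal tumors grown on the hind legs of athymic nude mice, imaged by micro-PET/CT 21 to 28 days post inoculation, once tumors reached roughly 0.5 cm across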
Procedure: as §1

human colorectal tumor = assay: as above; assay type: in vivo, athymic nude mice; conditions: 500 μCi/mouse iv
Procedure: as §1

Sequence of SSTR3 (P32745 whole entry, species assumed): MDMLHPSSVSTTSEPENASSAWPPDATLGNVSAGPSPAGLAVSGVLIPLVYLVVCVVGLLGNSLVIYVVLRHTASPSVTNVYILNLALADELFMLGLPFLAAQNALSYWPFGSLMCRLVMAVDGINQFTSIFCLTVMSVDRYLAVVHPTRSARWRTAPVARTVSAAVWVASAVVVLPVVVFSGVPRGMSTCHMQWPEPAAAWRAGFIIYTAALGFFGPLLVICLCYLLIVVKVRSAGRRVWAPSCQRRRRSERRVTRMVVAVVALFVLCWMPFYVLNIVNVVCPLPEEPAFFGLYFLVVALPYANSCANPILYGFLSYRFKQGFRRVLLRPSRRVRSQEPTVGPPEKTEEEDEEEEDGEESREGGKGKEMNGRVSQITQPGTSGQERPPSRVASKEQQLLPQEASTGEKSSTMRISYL
Sequence of SSTR2 (P30874 whole entry, species assumed): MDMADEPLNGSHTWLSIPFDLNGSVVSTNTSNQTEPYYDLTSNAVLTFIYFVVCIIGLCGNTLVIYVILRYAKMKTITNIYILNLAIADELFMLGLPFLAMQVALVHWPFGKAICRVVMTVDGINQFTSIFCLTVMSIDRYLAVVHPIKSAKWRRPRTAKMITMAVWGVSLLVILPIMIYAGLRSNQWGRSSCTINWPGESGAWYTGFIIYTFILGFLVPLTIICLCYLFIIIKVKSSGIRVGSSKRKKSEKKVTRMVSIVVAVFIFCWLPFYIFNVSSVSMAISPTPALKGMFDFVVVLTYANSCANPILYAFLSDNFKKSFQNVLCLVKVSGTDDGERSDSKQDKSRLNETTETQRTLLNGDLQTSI

## C[C@@H](O)[C@@H]1NC(=O)[C@H](CCCCN)NC(=O)[C@@H](Cc2c[nH]c3ccccc23)NC(=O)[C@H](Cc2ccccc2)NC(=O)[C@@H](NC(=O)[C@H](N)Cc2ccccc2)CSSC[C@@H](C(=O)N[C@H](CO)[C@@H](C)O)NC1=O [octreotide]
SSTR2
  affinity to SSTR2 subtype: high affinity
SSTR3
  affinity to SSTR3 subtype: low affinity

## O=C([O-])CN1CCN(CC(=O)[O-])CCN(CC(=O)O)CCN(CC(=O)[O-])CC1.[68Ga+3] [^68Ga-DOTA]
Human pancreatic tumor
  bladder uptake (PET/CT): high bladder uptake
  clearance (PET/CT): fast clearance
  visualization of neuroendocrine tumors by PET/CT: could not be used to visualize neuroendocrine tumors

## C[C@@H](O)[C@H](NC(=O)[C@@H]1CSSC[C@H](NC(=O)[C@@H](Cc2ccccc2)NC(=O)CN2CCN(CC(=O)O)CCN(CC(=O)O)CCN(CC(=O)O)CC2)C(=O)N[C@@H](Cc2ccc(O)cc2)C(=O)N[C@H](Cc2c[nH]c3ccccc23)C(=O)N[C@@H](CCCCN)C(=O)N[C@@H]([C@@H](C)O)C(=O)N1)C(=O)O [^68Ga-DOTATATE, metal not drawn]
[1]; colorectal tumor-bearing mice, dynamic images 0 to 30 minutes, read-out: average tumor/muscle (T/M) count density ratios, approximate range
  tissue to tissue ratio: 1.2
[1]; frame 0, midpoint 15 sec
  tissue to tissue ratio at 15 s: 1.2
[1]; frame 1, midpoint 30 sec
  tissue to tissue ratio at 0.5 min: 1.05
[1]; frame 2, midpoint 45 sec
  tissue to tissue ratio at 45 s: 1.26
[1]; frame 3, midpoint 60 sec
  tissue to tissue ratio at 1 min: 1.27
[1]; frame 4, midpoint 90 sec
  tissue to tissue ratio at 0.025 h: 1.24
[1]; frame 5, midpoint 120 sec
  tissue to tissue ratio at 2 min: 1.3
[1]; frame 6, midpoint 180 sec
  tissue to tissue ratio at 0.05 h: 1.21
[1]; frame 7, midpoint 240 sec
  tissue to tissue ratio at 4 min: 1.3
[1]; frame 8, midpoint 300 sec
  tissue to tissue ratio at 5 min: 1.3
[1]; frame 9, midpoint 360 sec
  tissue to tissue ratio at 0.1 h: 1.23
[1]; frame 10, midpoint 540 sec
  tissue to tissue ratio at 0.15 h: 1.25
[1]; frame 11, midpoint 720 sec
  tissue to tissue ratio at 0.2 h: 1.3
[1]; frame 12, midpoint 900 sec
  tissue to tissue ratio at 0.25 h: 1.29
[1]; frame 13, midpoint 1200 sec
  tissue to tissue ratio at 20 min: 1.42
[1]; frame 14, midpoint 1500 sec
  tissue to tissue ratio at 25 min: 1.44
[1]; frame 15, midpoint 1800 sec
  tissue to tissue ratio at 0.5 h: 1.55
Human colorectal tumor; frame 0, midpoint 15 sec
  Muscle count density: 0.242
  Tumor count density: 0.290
Human colorectal tumor; frame 1, midpoint 30 sec
  Muscle count density: 0.273
  Tumor count density: 0.286
Human colorectal tumor; frame 2, midpoint 45 sec
  Muscle count density: 0.237
  Tumor count density: 0.298
Human colorectal tumor; frame 3, midpoint 60 sec
  Muscle count density: 0.255
  Tumor count density: 0.324
Human colorectal tumor; frame 4, midpoint 90 sec
  Muscle count density: 0.238
  Tumor count density: 0.296
Human colorectal tumor; frame 5, midpoint 120 sec
  Muscle count density: 0.227
  Tumor count density: 0.296
Human colorectal tumor; frame 6, midpoint 180 sec
  Muscle count density: 0.235
  Tumor count density: 0.284
Human colorectal tumor; frame 7, midpoint 240 sec
  Muscle count density: 0.233
  Tumor count density: 0.303
Human colorectal tumor; frame 8, midpoint 300 sec
  Muscle count density: 0.231
  Tumor count density: 0.300
Human colorectal tumor; frame 9, midpoint 360 sec
  Muscle count density: 0.232
  Tumor count density: 0.286
Human colorectal tumor; frame 10, midpoint 540 sec
  Muscle count density: 0.230
  Tumor count density: 0.287
Human colorectal tumor; frame 11, midpoint 720 sec
  Muscle count density: 0.231
  Tumor count density: 0.300
Human colorectal tumor; frame 12, midpoint 900 sec
  Muscle count density: 0.227
  Tumor count density: 0.294
Human colorectal tumor; frame 13, midpoint 1200 sec
  Muscle count density: 0.206
  Tumor count density: 0.292
Human colorectal tumor; frame 14, midpoint 1500 sec
  Muscle count density: 0.200
  Tumor count density: 0.288
Human colorectal tumor; frame 15, midpoint 1800 sec
  Muscle count density: 0.180
  Tumor count density: 0.279
